Data: US20250289894A1 (MORPHIC THERAPEUTIC, published 2025)
Where a chain is given by its changes, count along the chain named.

Experiments:
Human a7b1 Ecto (X2B) = target: T1, Human a7b1 Ecto (X2B) (human, UniProt P05556 21-728); experiment: SPR
T1 construct: extracellular domain

Human a7 Genu Calf 1-2 = target: T2, Human a7 Genu Calf 1-2 (human, UniProt Q13683 679-1078, limits assumed); experiment: SPR
T2 construct: domain: Genu Calf 1-2
T2 sequence (looked up): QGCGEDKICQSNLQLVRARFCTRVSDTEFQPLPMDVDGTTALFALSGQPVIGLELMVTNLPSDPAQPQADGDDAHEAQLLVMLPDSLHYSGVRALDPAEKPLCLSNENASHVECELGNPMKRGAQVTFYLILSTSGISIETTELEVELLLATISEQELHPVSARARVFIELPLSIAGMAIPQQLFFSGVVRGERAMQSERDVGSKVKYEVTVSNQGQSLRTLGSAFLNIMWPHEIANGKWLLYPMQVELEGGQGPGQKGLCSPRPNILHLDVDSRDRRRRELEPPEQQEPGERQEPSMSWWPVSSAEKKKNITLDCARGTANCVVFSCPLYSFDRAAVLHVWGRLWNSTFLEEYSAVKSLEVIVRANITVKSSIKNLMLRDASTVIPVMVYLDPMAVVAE

[1] = target: Human α7β1 Ecto Domain (human) (UniProt Q13683); experiment: SPR
[2] = target: Mouse α7β1 Ecto Domain (mouse) (UniProt Q61738); experiment: SPR
[3] = target: T3, Cynomolgus Monkey α7β1 Ecto Domain (cynomolgus monkey, UniProt A0A2K5UNI0 34-1082; H9FU31 21-728); experiment: SPR
T3 construct: extracellular domain; Heterodimer

Human Leg α7 = target: T4, Human Leg α7 (human, UniProt Q13683 679-1078); experiment: SPR
T4 construct: also called human α7 leg; leg domain of human α7
T4 sequence: T2 sequence (looked up)

Cynomolgus Monkey Leg α7 = target: T5, Cynomolgus Monkey Leg α7 (cynomolgus monkey, UniProt A0A2K5UNI0 679-1078); experiment: SPR
T5 construct: domain: Leg α7
T5 sequence: T2 sequence (looked up) with T22A, V36A, I180T, R220K, Q246R, T384I

Mouse Leg α7 = target: T6, Mouse Leg α7 (mouse, UniProt Q61738 679-1076, limits assumed); experiment: SPR
T6 construct: domain: Leg α7
T6 sequence (looked up): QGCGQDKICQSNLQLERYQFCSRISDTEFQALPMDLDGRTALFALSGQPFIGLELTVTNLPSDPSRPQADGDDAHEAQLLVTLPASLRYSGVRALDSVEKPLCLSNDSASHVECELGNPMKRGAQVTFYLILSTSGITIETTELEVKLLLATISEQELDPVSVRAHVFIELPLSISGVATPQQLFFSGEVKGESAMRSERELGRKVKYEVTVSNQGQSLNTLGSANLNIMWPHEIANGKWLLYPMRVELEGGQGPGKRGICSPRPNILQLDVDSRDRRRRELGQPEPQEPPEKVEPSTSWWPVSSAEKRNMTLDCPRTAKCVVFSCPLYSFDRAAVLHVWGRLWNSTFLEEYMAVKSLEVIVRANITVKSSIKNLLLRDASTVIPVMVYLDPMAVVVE

Human α7β1 (human) [4] = target: Human α7β1 (human) (UniProt Q13683); experiment: cell-based or functional assay
[5] = target: Human α7β1 Ecto Domain (human) (UniProt Q13683); experiment: cell-based or functional assay
[6] = target: Mouse α7β1 Ecto Domain (mouse) (UniProt Q61738); experiment: cell-based or functional assay
Cynomolgus Monkey α7β1 = Cynomolgus Monkey α7β1 (cynomolgus monkey, UniProt A0A2K5UNI0 34-1181; H9FU31 21-798); experiment: cell-based or functional assay
Mouse α7β1 [7] = target: T7, Mouse α7β1 (mouse, UniProt Q61738 34-1179; P09055 21-798); experiment: cell-based or functional assay
T7 sequence (Q61738 34-1179, chain 1 of 2): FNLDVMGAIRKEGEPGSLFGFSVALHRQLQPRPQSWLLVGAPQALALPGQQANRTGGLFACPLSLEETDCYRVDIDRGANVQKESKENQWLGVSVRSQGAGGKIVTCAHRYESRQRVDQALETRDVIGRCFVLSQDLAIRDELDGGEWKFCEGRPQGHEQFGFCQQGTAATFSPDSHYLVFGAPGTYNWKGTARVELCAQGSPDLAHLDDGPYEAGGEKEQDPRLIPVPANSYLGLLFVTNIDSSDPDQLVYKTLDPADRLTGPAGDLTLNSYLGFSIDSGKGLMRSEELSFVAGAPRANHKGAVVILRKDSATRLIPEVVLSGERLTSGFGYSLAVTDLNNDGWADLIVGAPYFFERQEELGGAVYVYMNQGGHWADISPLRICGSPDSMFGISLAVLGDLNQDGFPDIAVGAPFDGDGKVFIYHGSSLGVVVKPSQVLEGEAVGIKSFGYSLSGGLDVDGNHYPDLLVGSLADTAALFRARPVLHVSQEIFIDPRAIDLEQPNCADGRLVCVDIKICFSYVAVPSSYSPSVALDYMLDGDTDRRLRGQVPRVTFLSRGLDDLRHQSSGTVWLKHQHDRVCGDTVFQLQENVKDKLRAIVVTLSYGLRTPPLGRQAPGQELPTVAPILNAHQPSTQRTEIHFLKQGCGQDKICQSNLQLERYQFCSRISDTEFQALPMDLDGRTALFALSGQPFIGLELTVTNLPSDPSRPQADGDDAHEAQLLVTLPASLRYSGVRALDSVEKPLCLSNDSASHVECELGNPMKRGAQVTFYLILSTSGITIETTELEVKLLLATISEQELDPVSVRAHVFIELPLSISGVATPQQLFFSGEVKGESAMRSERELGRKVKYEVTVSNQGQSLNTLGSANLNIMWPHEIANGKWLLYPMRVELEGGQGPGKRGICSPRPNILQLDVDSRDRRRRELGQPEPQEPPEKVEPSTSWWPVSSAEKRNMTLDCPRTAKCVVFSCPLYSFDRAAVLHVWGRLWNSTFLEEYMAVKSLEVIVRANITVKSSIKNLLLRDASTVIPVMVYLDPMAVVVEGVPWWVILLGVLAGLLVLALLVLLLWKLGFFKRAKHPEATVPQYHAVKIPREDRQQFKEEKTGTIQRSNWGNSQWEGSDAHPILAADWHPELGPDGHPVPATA
T7 sequence (P09055 21-798, chain 2 of 2): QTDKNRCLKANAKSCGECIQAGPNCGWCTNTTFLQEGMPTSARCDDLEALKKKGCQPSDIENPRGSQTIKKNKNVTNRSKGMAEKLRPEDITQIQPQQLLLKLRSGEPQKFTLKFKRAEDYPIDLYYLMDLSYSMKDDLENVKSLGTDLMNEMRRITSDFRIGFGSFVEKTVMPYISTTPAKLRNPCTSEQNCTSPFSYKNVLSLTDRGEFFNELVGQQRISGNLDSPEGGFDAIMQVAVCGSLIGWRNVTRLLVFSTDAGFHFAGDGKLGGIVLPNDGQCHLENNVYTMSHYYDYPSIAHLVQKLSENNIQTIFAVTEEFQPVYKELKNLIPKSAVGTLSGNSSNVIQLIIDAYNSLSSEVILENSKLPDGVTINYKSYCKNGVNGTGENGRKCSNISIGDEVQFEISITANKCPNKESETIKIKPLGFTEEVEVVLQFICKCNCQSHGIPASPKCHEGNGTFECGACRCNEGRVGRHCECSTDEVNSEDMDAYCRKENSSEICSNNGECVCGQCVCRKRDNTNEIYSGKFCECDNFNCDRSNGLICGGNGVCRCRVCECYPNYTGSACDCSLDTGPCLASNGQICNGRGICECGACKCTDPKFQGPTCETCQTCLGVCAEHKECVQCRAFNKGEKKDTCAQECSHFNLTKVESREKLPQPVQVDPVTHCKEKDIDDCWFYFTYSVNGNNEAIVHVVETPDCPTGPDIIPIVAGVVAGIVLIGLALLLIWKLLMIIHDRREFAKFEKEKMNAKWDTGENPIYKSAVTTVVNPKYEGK

Human α7β1 (human) [8] = target: Human α7β1 (human) (UniProt Q13683); experiment: cell binding, DMD myoblast cells, with Mn-BOP
Mouse α7β1 [9] = target: T7, Mouse α7β1; experiment: cell binding, mouse α7β1 cells, with Mn-BOP

B1: Ab41 (antibody, human IgG1, V domains shown)
VH: EVQLVQSGAEVKKPGSSVKVSCKASGYSFTRYWMHWVRQAPGQGLEWIGKIDPSDSETRLNQEFRDRATLTVDKSTSTAYMELSSLRSEDTAVYYCARGGYFGEQWYHDVWGQGTLVTVSS
VL: DIVMTQSPLSLPVTPGEPASISCRSSQSLVHRNGNTYLHWYLQKPGQSPQLLIYEVSKRFSGVPDRFSGSGSGTDFTLKISRVEAEDVGVYFCAQSIQVPWTFGGGTKLEIK
In the case of B1, the Kd (Human a7b1 Ecto (X2B)) is reported as 3.88 nM and the Kd (Human a7 Genu Calf 1-2) is reported as 0.71 nM.

B2: Ab25 (antibody, human IgG1, kappa, L234A L235A)
heavy: EVQLVQSGAEVKKPGSSVKVSCKASGYSFTRYWMHWVRQAPGQGLEWIGKIDPSDSETRLNQEFRDRATLTVDKSTSTAYMELSSLRSEDTAVYYCARGGYFGREWYYDVWGQGTLVTVSSASTKGPSVFPLAPSSKSTSGGTAALGCLVKDYFPEPVTVSWNSGALTSGVHTFPAVLQSSGLYSLSSVVTVPSSSLGTQTYICNVNHKPSNTKVDKKVEPKSCDKTHTCPPCPAPEAAGGPSVFLFPPKPKDTLYITREPEVTCVVVDVSHEDPEVKFNWYVDGVEVHNAKTKPREEQYNSTYRVVSVLTVLHQDWLNGKEYKCKVSNKALAAPIEKTISKAKGQPREPQVYTLPPSRDELTKNQVSLTCLVKGFYPSDIAVEWESNGQPENNYKTTPPVLDSDGSFFLYSKLTVDKSRWQQGNVFSCSVMHEALHNHYTQKSLSLSPG
light: DIVMTQSPLSLPVTPGEPASISCRSSQSLVHRNGNTYLHWYLQKPGQSPQLLIYEVSNRAAGVPDRFSGSGSGTDFTLKISRVEAEDVGVYFCSQSTHVPWTFGGGTKLEIKRTVAAPSVFIFPPSDEQLKSGTASVVCLLNNFYPREAKVQWKVDNALQSGNSQESVTEQDSKDSTYSLSSTLTLSKADYEKHKVYACEVTHQGLSSPVTKSFNRGEC
notes: same variable domains as Ab24
B2 gave a Kd (Human a7b1 Ecto (X2B)) of 3.4 nM and a Kd (Human a7 Genu Calf 1-2) of 0.3 nM.

B3: Ab26 (antibody, human IgG1, kappa, L234A L235A, V domains shown)
VH: B1 VH with Q105E
VL: DIVMTQSPLSLPVTPGEPASISCRSSQSLVHRNGNTYLHWYLQKPGQSPQLLIYEVSNRFTGVPDRFSGSGSGTDFTLKISRVEAEDVGVYFCAQSTQLPYTFGGGTKLEIKR
B3 gave a Kd (Human a7b1 Ecto (X2B)) of 2.2 nM and a Kd (Human a7 Genu Calf 1-2) of 0.3 nM.

B4: Ab8 (antibody, V domains shown)
VH: QVPLQQSGPQLVRPGASVKISCKASGYSFTRYWMHWVKQRPGQGLDWIGKIDPSDSETRLNQEFRDKATLTVDKSSSTAYLQLSSPTSEDSAVYYCARGGYFGEGWYFDVWGAGTTVTVSS
VL: DVVMTQIPLSLPVSLGDQASISCRSSQSLVHRNGNTYLHWYLQKPGQSPKLLIYKVSNRFSGVPDRFSGSGSGTDFTLKISRVEAEDLGVYFCSQSTHVPWTFGGGTKLEIK
notes: Mouse anti-α7β1 antibody (hybridoma, α7 knock-out mouse); also called AbS
In the case of B4, the Kd [1] is reported as 184 nM, the Kd [2] is reported as 5.46 nM and the Kd [3] is reported as 225 nM. For the same binder, the Kd (Human Leg α7) was 25 nM, the Kd (Cynomolgus Monkey Leg α7) was 32.3 nM and the Kd (Mouse Leg α7) was 1.42 nM. The EC50 (nM), Cell Adhesion Assay (K562 cells expressing α7β1 on laminin-221) (Human α7β1 (human) [4]) was 3.94 nM, the EC50 (nM), ECIS, DMD-1 myoblast cells (Human α7β1 (human) [4]) was 10 nM and the EC50 (nM), ECIS, DMD-2 myoblast cells (Human α7β1 (human) [4]) was 32 nM. For the same binder, the EC50 (nM), ECIS, Non-DMD myoblast cells (Human α7β1 (human) [4]) was 41.6 nM, the Emax (% of RefAb1), ECIS, DMD-1 myoblast cells (Human α7β1 (human) [4]) was 264 % of RefAb1 and the Emax (% of RefAb1), ECIS, DMD-2 myoblast cells (Human α7β1 (human) [4]) was 130 % of RefAb1. The Emax (% of RefAb1), ECIS, Non-DMD myoblast cells (Human α7β1 (human) [4]) was 100 % of RefAb1, the Emax (%*), Cell Adhesion Assay (Human α7β1 (human) [4]) was 117% and the EC50 (nM), Solid Phase Assay (6xHis α7β1 ectodomain on coated laminin-221) [5] was 0.77 nM. For the same binder, the Emax (%*), Solid Phase Assay [5] was 89%, the EC50 (nM), Solid Phase Assay [6] was 1.55 nM and the Emax (%*), Solid Phase Assay [6] was 148%. For the same binder, the “EC50 (nM), Cell Adhesion Assay” value (Cynomolgus Monkey α7β1) was 1.69 nM, the “Emax (%*), Cell Adhesion Assay” value (Cynomolgus Monkey α7β1) was 102% and the “EC50 (nM), Cell Adhesion Assay” value (Mouse α7β1 [7]) was 3.82 nM. For the same binder, the “Emax (%*), Cell Adhesion Assay” value (Mouse α7β1 [7]) was 144%, the EC50 (Human α7β1 (human) [8]) was 32.6 nM and the EC50 (Mouse α7β1 [9]) was 22.6 nM.
